According to patent US20220144922A1 (Adimab, published 2022):

What was measured:
[1] = biological target: T1, prefusion-stabilized RSV F ectodomain (DS-Cav1), subtype B (respiratory syncytial virus subtype B); test: BLI, IgG on sensor
T1 construct: extracellular domain; also called Prefusion subtype B
Description: IgG binding to DS-Cav1 and FA FP was determined by BLI measurements using a FortéBio Octet HTX instrument (Pall Life Sciences). […] Data was analyzed using the ForteBio Data Analysis Software 7. The data was fit to a 1:1 binding model to calculate an association and dissociation rate, and KD was calculated using the ratio kd/kₐ.

[2] = biological target: RSV F protein of subtype A strain A2, on virus (respiratory syncytial virus subtype A …, UniProt P03420 26-574); test: cell-based or functional assay
[3] = biological target: RSV F protein of subtype B strain 18537, on virus (respiratory syncytial virus subtype B …, UniProt P13843 26-574); test: cell-based or functional assay

Binder | Kd [1] | Neut IC50 (ug/ml) subtype A [2] | Neut IC50 (ug/ml) subtype B [3]
ADI-15558 (antibody, V domains shown, IgG) VH: QVQLVQSGGEVKKPGASVKVSCKASGYTFTTYGISWVRQAPGHGLEWLGWISPKNGNTKYAQKVQGRVTMTIDPTTSTAYMELRSLRSDDTAMYYCARDYIVAIVAALPHGMDVWGQGTLVTVSS VL: QSVLTQPPSLSVSPGQTASISCSGDQLGNKYVCWYQQKPGQSPVLVIYQDSRRPSGVPERFSGSNSGNTATLTVGGTQPMDEADYYCQAWDSSIRVFGGGTKVTVL | 0.94 nM |  | 
ADI-15595 (antibody, V domains shown) VH: EVQLVESGPTLVKPTQTLTLTCTFSGFSLTTIGVGVGWIRQPPGKALEFLGIVYWDDDKRYSPSLKSRLTITKDTSKNQVVLTMTTLAPEDTGTYYCTYARYSSALFGGYYFHSWGQGTLVTVSS VL: QSVLTQPPSVSVAPGQTAKITCGGNDIGSRSVHWYQQKPGQAPVLVVYDNSDRPSGIPERFSGSNSGDTATLTISRVEAGDEAVYYCQVWESSGDHPRIFGGGTKLTVL |  | 0.02 µg/mL | 0.17 µg/mL
ADI-15562 (antibody, V domains shown) VH: QVQLVQSGAEVKKPGDSLKISCKNAGHTSRIYWIAWVRQMPAKGLEYMGIIFPGDSDTRYSPSFRGQVTISADRSIRTAYLQLSSLKASDTGIYYCATQGLEGAFDYWGQGTLVTVSS VL: DIRLTQSPSSLSASVGDRVTITCQASQDISNQLNWYQQKPGTAPKLLIYDASFLQTGVPSRFSGSGSGTHFTFTITSLQPEDFATYFCQHYDSFPIFTFGPGTKLEIK |  | 0.01 µg/mL | 
ADI-15557 (antibody, V domains shown, IgG) VH: QVQLVQSGAEVKRPGSSVKVSCKASGGTFSSFAINWVRQAPGQGLEWMGGLIPIFGTPNNAQKFQGRVTITADESTSTAYMELSSLRSEDTAVYYCASLRYFDWQPGGSYWFDPWGQGTLVTVSS VL: QPGLTQPPSVSVAPGKTARIACGGDNIGTKGVHWYQQKPGQAPVLVIYYDSDRPSGIPERFSGSNSGNTATLTISGVEAGDEADYYCQVWDTIDDHKDGLFGGGTKLTVL | 0.61 nM | 0.041 µg/mL | 0.028 µg/mL
ADI-15607 (antibody, V domains shown) VH: QVQLVQSGGGLVQPGGSLRLSCAASRFTFSSYAMSWVRQAPGKGLEWVSTISGSGISTYYADSVKGRFTISRDNSKNTLYLQMNSLSAEDTAVYYCAKELREYYYDSSGFDYWGQGTLVTVSS VL: QPVLTQSRSVSGSPEQSVTISCTGTSSDVGGYNYVSWYQQHPGKAPKLMIYDVSKRPSGVPDRFSGSKSGNTASLTISGLQAEDESDYYCCSYAGTYTYVFGTGTKVTVL |  | > 10 µg/mL | > 10 µg/mL
ADI-15555 (antibody, V domains shown) VH: EVQLVESGGALVKPGGSLRLSCVGTGLTFTTAYMSWARQAPGKGLEWVGRIKSKSDGGTTDYPTPVKGRFTISRDESKNTLYLQMNSLKIEDTAVYYCTTDRGITARPIFDSWGQGTLVTVSS VL: QSVLTQPPSVSGALGRRVTISCTGSSSNIGAGYDVHWYRQLPGTAPKLLIYGNTKRPSGVPDRFSGSKYATSASLAITGLQAEDDADYYCQSYDGGLSGYVFGTGTKLTVL |  | 2.19 µg/mL | 2.45 µg/mL
ADI-15579 (antibody, V domains shown) VH: EVQLVESGGGLVQPGRSLRLSCAAFGFTFDDYAMHWVRQAPGKGLEWVSGISWNSGFIGYADSVKGRFTISRDNAKNSLSLQMNSLRTEDTALYYCAKTDGAVAVDGPFDYWGQGTLVTVSS VL: EIVLTQSPSSLSASVGDRVTITCRASQSISGYLSWYQQKPGKAPKLLIHSTSSLQSGVPSRFSGSGSGTDFTLTITSLQPEDFATYYCQQSYIAPPTFGQGTKVEIK |  | 8.02 µg/mL | > 10 µg/mL
ADI-15613 (antibody, V domains shown) VH: EVQLVESGAEVKKPGSSVKVSCKVSGGTFSTYGISWIQQAPGQGLEWVGGIIPMFGTANYAQRFQGRVTLTADEGTNTAYMELNNLRSEDTAMYYCARDRGNNGRYYAMDVWGQGTTVTVSS VL: DIVLTQTPATLSLSPGERATLSCRASQSVTTYLAWYQQKPGQAPRLLIYDTSNRATGIPARFSGSGSGTDFTLTISSLEPEDFAVYYCQQRNNWPPTFGQGTRLEIK |  | 0.862 µg/mL | 3.04 µg/mL
ADI-15618 (antibody, V domains shown, IgG) VH: EVQLVETGGGLIQPGGSLRLSCVASGFSLRNYALGWLRQAPGKGLEWVSGGYYGDVYYTDSVKGRFAVSRDNSGDTVYLEMDNLRVEDTAVYYCARMETVTTDAGSGWDWYFEVWGRGTLVTVSS VL: ETTLTQSPATLSLSPGDWATLSCRASQSVGTYLAWYQHKPGQAPRLLIHDASNRASDIPSRFSGSGSGTDFTLTIRGLEPEDFAVYYCQQHRDWRPVTFGGGTKVEIK | 0.535 nM | 0.003 µg/mL | 
ADI-15661 (antibody, V domains shown) VH: EVQLVESGGGVVQPGRSLRLSCEASGFNFHNYDIQWVRQAPGKGLEWVALVLFDGSKKYYPHSVKGRFAISRDNSKKTLFLQMNSLRPEDTAVYYCARAPVTGASYYLDYWGQGTLVTVSS VL: SYVLTQPPSVSVAPGQTARITCGANNIGNKGVHWYQQKPGQAPVLVVYDDDDQPSGIPERFSGSNSGNTATLTISRVEAGDEADYYCQVWDSTSDHLVFGGGTQLTVL |  | 0.021 µg/mL | > 10 µg/mL
ADI-15630 (antibody, V domains shown) VH: QVQLVQSGGGLVKPGGSLRLSCAASGFIFSDYYMVWIRQAPGKGLEWVSYISSSSRYINYADSVKGRFTISRDNAKNSLFLQMNTVRAEDTAVYYCAQGWYSDFWSGPIRIWGQGTLVTVSS VL: DIQLTQSPSSLSASVGDRVTITCQASQDISNSLNWFQQKPGKAPKLLIFDAYNLETGVPSRFSGSGSGTDFTLTISSLQPEDIATYYCQQNDNLVLTFGGGTKLEIK |  | > 10 µg/mL | 6.64 µg/mL
ADI-15636 (antibody, V domains shown) VH: EVQLVESGAEVKKPGSSVKVSCKASADTFSSYAISWVRQAPGQGLEWMGGILPILGTANSAQKFRGRVTFTADESTTTAYMELSSLRSEDTAVYYCARLAGPRWPGYGMDVWGQGTLVTVSS VL: DIQLTQSPSFLSASVGDRVTITCRASQGISSYLAWYQQKPGKAPKLLIYAASTLQSGVPSRFSGSGSGTEFTLTISSLQPEDFATYYCQQLNSFPLTFGGGTKVEIK |  | > 10 µg/mL | 6.44 µg/mL
ADI-15572 (antibody, V domains shown) VH: QVQLVQSGAEAKKPGASVKVSCKASGYTFTSYYLHWVRQAPGQGPEWMGIINPGGGSTELSQKFQGRVTLTRDTSTSTVYMEVTSLTSEDTAVYYCARARIQLWAPNYYGMDVWGQGTTVTVSS VL: DIQLTQSPSFLSASVGDRVTITCRASHGITSYLAWYQQKPGNAPKLLIYAASTLQSGVPSRFSGSGSETQFTLTISGLQPEDFATYYCQQLNRYPLTFGQGTKVEIK |  | 9.48 µg/mL | 6.25 µg/mL
ADI-15634 (antibody, V domains shown) VH: QVQLVQSGAEVKKPGSSVKVSCKASGGTFSSYAISWVRQAPGQGLEWMGGIIPIFGTVNYAQKFQGRVTITADESTSTAYMELSSLRSEDTAVYYCARDRSVTPRYYGMDVWGQGTTVTVSS VL: EIVMTQSPATLSLSPGERATLSCRASQSVSSYLAWYQQKPGQAPRLLIYDASNRATGIPARFSGSGSGTDFTLTISSLEPEDFAVYYCQHRSNWPPLTFGPGTKLEIK |  | > 10 µg/mL | > 10 µg/mL
ADI-15664 (antibody, V domains shown) VH: EVQLVESGAEVKKPGSSVKVSCKASGGTFSSYAISWVRQAPGQGLEWMGGTIPIFGTINYAQKFQGRLTINADASTSTAYMELSSLRSEDTAVYFCARDRTTAVRYYAMDVWGQGTTVTVSS VL: EIVLTQSPATLSLSPGERATLSCRASQSVSSYLAWYQQKPGQAPRLLIYDTSNRATDIPARFSGSGSGTDFTLTISSLEPEDFAVYYCQHRANWPPLTFGGGTKVEIK |  | > 10 µg/mL | > 10 µg/mL
ADI-15590 (antibody, V domains shown) VH: EVQLLESGGLVVQPGGSLRLSCAASGFIFDDYTMHWVRQAPGKGLEWISLISWDSLDTYYAGSVQGRFTISRDNSRNSLYLRMNSLRPEDTALYYCAKTKYRGTYYYFDSWGQGTLVTVSS VL: DIRVTQSPSSLSASVGDRVTITCQASQDISNYLNWYQQKPGKAPKLLIYDASNLETGVPSRFSGRGSGTDFTFTISSLQPEDIATYYCQQYDNLPPVTFGPGTKVEIK |  | > 10 µg/mL | > 10 µg/mL
ADI-15581 (antibody, V domains shown) VH: QVQLVQSGAEVKKPGSSMKVSCQASGGPFSTYTISWVRQAPGQGLEWMGGIIPVFGTPNYAQKFHGRVTITADQSTSTAYMELSSLRSEDTAVYYCAGAPYPMDVWGQGTTVTVSS VL: EIVLTQSPATLSLSPGERATLSCRASQSVASSLAWYQQKPGQAPRLLIYDASNRATGIPARFSGSGSGTDFTLTISSLEPEDFAVYYCQQRTNWQGLSFGGGTKVDIK |  | 8.25 µg/mL | 6.12 µg/mL
ADI-15570 (antibody, V domains shown) VH: QVQLVESGGGVVQPGKSLRLSCAASGFTFSSYPMHWVRQAPGAGLEWMAVISYDGANKYYEDSLKGRFTISRDNSKDTLFLQMNNLRPEDTAVYYCARGRTSHINTPETKWGQGTLVTVSS VL: EIVLTQSPTLVSASTGDTVTISCRMSQGINGYLAWFQKKPGKAPDLLIYGASTLQDGVPSRFSGSGSGTDFTLTISRLQSEDLATYYCQQYYSLPWTFGQGTKVDIK |  | 13.3 µg/mL | > 10 µg/mL
ADI-15589 (antibody, V domains shown) VH: QVQLQQWGAGLLKPSETLSLTCAVYGGSFSGYYWGWIRQPPGKGLEWIGEVNHSGTSNYNPSLTSRVTISVDPSKKQLSLKLNSVTAADTAVYYCARAPWYTHAMDVWGQGTTVTVSS VL: QSVLTQPASVSGSPGQSITISCTRTSSDVGAYSYVSWYQQHPGKAPKLMIYDVNNRPSGVSNRFSGSKSGNTASLTISGLQAEDEADYYCSSYTNSNTLGVFGGGTKLTVL |  | 0.876 µg/mL | 18.5 µg/mL
